Holding throughout (assay): western blot of recombinant protein
(In western blotting, separated proteins are transferred to a membrane and probed.)

The target of test [1] is T1, recombinant human CNAα wild type (unphosphorylated) (human, UniProt Q08209 1-521, limits assumed).
T1 construct: Co-expressed with the CNB1 subunit in E. coli and co-purified; run on denaturing gels for western blot; also called wild-type CNAα; WT CNAα
How it is done: (§1) Levels of total CNAα were used as a loading control and were assessed after stripping of the membranes and incubation with anti-CNAα rabbit by chemiluminescence (bottom panel).

The target of test [2] is T2, recombinant human CNAα S469E phosphomimetic mutant (human, UniProt Q08209 1-521, limits assumed).
T2 construct: Co-expressed with CNB1 in E. coli and co-purified; also called S469E CNAα; phosphomimic mutant S469E
The procedure:
as §1

Test [3] deals with recombinant CNAα double mutant S462E/S469E (human, UniProt Q08209 1-521, limits assumed). How it is done:
as §1

B1: monoclonal mouse anti-pS469 CNAα antibody (antibody, V domains shown)
VH: EVQLQQSGAELVRPGASVKLSCTASDFNIKDTYIHWLKQRPEQGLEWIGRIDPANSNPKYDPNFQGKATITTDTSSNTAYLQLSSLTSDDTAVYYCTRRDYYGSGSWFAYWGQGTLVTVSS
VL: DIVMTQAAPSVPVTPGESVSISCRSSKSLLHSNGNTYLYWFLQRPGQSPQLLIYRMSNLASGVPDRFSGSGSGTAFTLRINRVEAEDVGVYYCMQHLEYPLTFGAGTKLELK
notes: 7 and 9 are used; Mouse monoclonal; also called monoclonal mouse anti-S469 phosphospecific antibody; monoclonal murine anti-S469 CNAα phosphospecific antibody
B1: the binding result is “no binding” in test [1], “binds” in test [2] and “binds” in test [3].
